# Measured values from patent US20240115742A1, “FLUORINATED FIBERS FOR MULTIMODAL 1H AND 19F MRI, ULTRASOUND, FLUORESCENCE DETECTION AND CONFORMATIONAL AND TEMPERATURE DETECTION BY 19F MRS” (New York University, priority 2022, published 2024).
# Where “and” joins values, the source holds several entries; their conditions need not be identical. Identical values can stand only once. Like-named read-outs stand apart in the source and are kept apart here.
# Key:
# [1] = measured in Q previously; cited from earlier work
# [2] = previous studies, cited from earlier work
# [3] = 10 Hz, Q as reported previously; cited from earlier work
# [4] = Cryo-EM of Q5 gel; format: physicochemical
# Description: Cryo-Electron Microscopy. Lacey Carbon 300 mesh copper grids (Ted Pella) were used for cryo-EM imaging on FEI TALOS F200C with Ceta 16M camera at 200 kV accelerating voltage. PELCO easiGlow™ Glow Discharge Cleaning System was also used for the plasma treatment of the grids.
# Cryo-EM. Cryo-EM samples were prepared with the Vitrobot system (Thermo Fisher Scientific) which can help vitrify a thin solution layer at low temperature. Approximately 4 μl of sample solution was applied to the grids in the chamber of Vitrobot at 4° C. and 100% humidity. The sample solution was incubated for 10 s and then the grid was blotted three times. Blotting lasted 1 s for each time. […] Then, the grid was transferred into liquid nitrogen. The cryo-EM holder was kept at −175° C. to prevent solvent crystallization during the imaging. Coarse-grained Model Details. Each bond is defined by Equation 10: […]
# [5] = Small angle X-ray scattering of Q5; format: physicochemical
# Description: Small Angle X-ray Scattering (SAXS). SAXS was employed to measure interparticle interactions, structure, and shape of Q5 since it was capable of gelation in the instrument holder within 24 h. SAXS experiments were performed at the National Synchrotron Light Source-II (NSLS-II) Beamline 16-ID (LiX) at Brookhaven National Laboratory.
# Small Angle X-ray Scattering (SAXS). All measurements were taken within 12 h of concentration of the protein from the dialysis bag. To study Q5 as an isolated particle, 150 μM (˜1 mg/mL) protein and dialysis buffer (50 mM Tris 500 mM NaCl pH 8.0) was loaded into a flow cell and measured in the q range […] to 3.19 Å^−1. The Q5 protein transition from solution to hydrogel was measured by incubation at 4° C. of 3 mM of Q5 protein in an eight-slot holder capable of loading 30 μL of each sample. Between measurements, the holder was returned for incubation at 4° C. Independent slots were used to load six samples of the Q5 hydrogel in solution including one for the empty cell and one for the dialysis buffer. Each slot was measured once incrementally over a 24 h incubation window to negate the impact of radiation (except for the measurement made at 24 h which was measured from the previous time point sample due to sample error in the last slot holder, however, a negligible impact of radiation was observed). Similarly, Q5 hydrogel measurements made at 3 mM and 4° C. were measured in the q range 0.005 Å^−1 to 3.19 Å^−1. Kratky plots were calculated by Guinier analysis of Rg and I(0) values. Flory exponents were calculated using MFF fit by Sosnick group online tool. Pair distance distribution function, P(r), was calculated using primus (ATSAS software).
Substance,protofibril diameter [1] [nm],melting temperature ([2]; 50 mM Na2HPO4 pH 4.0) [°C],melting temperature ([2]; 50 mM Na2HPO4 pH 10.0) [°C],storage modulus G′ [3],"fiber diameter (cryo-EM) ([4]; 0.5 mM, n=100) [nm]","fiber diameter (cryo-EM) ([4]; 1 mM, n=100) [nm]",fiber spacing by FFT ([4]; 2 mM),"crosslinked fiber diameter (cryo-EM) ([4]; 2 mM, n=100) [nm]","P(r) distribution centre ([5]; 150 μM, 0 h at 4 °C) [Å]","average step-size increase of P(r) peaks ([5]; 3 mM, 24 h at 4 °C) [Å]",cylinder length ([5]; assuming cylindrical shape) [nm]
"Q: rationally designed pentameric coiled-coil derived from C, SEQ ID NO: 23 (MRGSHHHHHHGSIEGRVKEITFLKNTAPQMLRELQETNAALQDVRELLRQQSKL) [reference compound]",3.5±0.5,55.3,46.4,50.4 Pa and 50 Pa,,,,,,,
"Q5: Q hydrogel variant from Rosetta Monte Carlo search, SEQ ID NO: 14 (MRGSHHHHHHGSIEGRVKEITFIKKTIEQIAEEMKEINKAIHDIRHALENISKK) [Protein Q5]",,,,,3.4±0.7,5.6±2.1,14-17 nm,5.8±1.5,22.5,39.1±4.2,6.8±0.4
